Target: the molecule itself
Experiment: crystal structure

B1: keratin 1-keratin 10 helix 2B heterodimer (K1-K10-2B) (complex, human)
chain 1: ESLYQSKYEELQITAGRHGDSVRNSKIEISELNRVIQRLRSEIDNVKKQISNLQQSISDAEQRGENALKDAKNKLNDLEDALQQAKEDLARLLRDYQELMNTKLALDLEIATYRTLLEGE
chain 2: EAWFNEKSKELTTEIDNNIEQISSYKSEITELRRNVQALEIELQSQLALKQSLEASLAETEGRYCVQLSQIQAQISALEEQLQQIRAETECQNTEYQQLLDIKIRLENEIQTYRSLLEGE
B1: binds.
